{
  "source": "paper PMC10869273",
  "about": "(Nature Biotechnology, 2023)",
  "key": {"[1]": {"molecular_target": "SARS-CoV-2 Omicron BA.1 receptor-binding domain (RBD) (SARS-CoV-2 Omicron BA.1, strain, biotin on the AviTag (expressed in the presence of BirA))", "experiment": "BLI", "details": "both partners purified"}, "[2]": {"molecular_target": "SARS-CoV-2 Beta-variant Spike with six stabilizing proline substitutions (S-6P) (SARS-CoV-2 Beta variant (B.1.351), strain)"}},
  "data": [
    {"binder": "best design of C143, IgG (antibody, V domains shown) VH: EVQLVESGGGLVQPGGSLRLSCAASGFSVSTKYMTWVRQAPGKGLEWVSVLYSGGSDYYADSVKGRFTISRDNSKNALYLQMNSLRVEDTGVYYCARDSSEVRDHPGHPGRSVGAFDIWGQGTMVTVSS VL: QSALTQPASVSGSPGQSITISCTGTSNDVGSYNLVSWYQQYPGKAPKLLIFEVTKRSSGISNRFSGSKSGNTASLTISGLQGEDEADYYCCSYAGASTFVFGGGTKLTVL", "values": [
      {"measurement": "fold improvement in apparent Kd over wild-type", "setting": "[1]", "result": 3.8, "unit": "fold"}
    ]},
    {"binder": "REGN10987 VH R16G-V108D (antibody, V domains shown) VH: QVQLVESGGGVVQPGGSLRLSCAASGFTFSNYAMYWVRQAPGKGLEWVAVISYDGSNKYYADSVKGRFTISRDNSKNTLYLQMNSLRTEDTAVYYCASGSDYGDYLLDYWGQGTLVTVSS VL: QSALTQPASVSGSPGQSITISCTGTSSDVGGYNYVSWYQQHPGKAPKLMIYDVSKRPSGVSNRFSGSKSGNTASLTISGLQSEDEADYYCNSLTSISTWVFGGGTKLTVL", "values": [
      {"measurement": "binding result", "setting": "[2]", "result": "binds"}
    ]},
    {"binder": "another design of REGN10987 (5.1-fold improvement for the Omicron BA.1 RBD), Fab (Fab, V domains shown) VH: QVQLVESGGGVVQPGGSLRLSCAASGFTFSNYAMYWVRQAPGKGLEWVAVISYDGSNKYYADSVKGRFTISRDNSKNTLYLQMNSLRTEDTAVYYCASGSDYGDYLLVYWGQGTLVTVSS VL: QSALTQPASVSGSPGQSITISCTGTSSDVGGYNYVSWYQQHPGKAPKLMIYDVSKRPSGVSNRFSGSKSGNTASLTISGLQSEDEADYYCCSLTSISTWVFGGGTKLTVL", "values": [
      {"measurement": "fold improvement in Fab Kd over wild-type", "setting": "[1]", "result": 5.1, "unit": "fold"}
    ]}
  ]
}
